Assay results: patent publication US20060014937A1

Target: HBV S-surface antigen (International Enzyme Inc., USA) adr type (hepatitis B virus (adr type))
Experiment: competition ELISA in solution (Friguet method): antibody pre-mixed with 10^-11 to 10^-6 M antigen, free antibody caught on antigen-coated plate

| Binder | Ka [M⁻¹] |
| --- | --- |
| humanized antibody YHB1110-13 (antibody, V domains shown) VH: QVQLKQSGPGLVKPSQTLSLTCTVSGFSLSTYGVQWVRQPPGKGLEWLGVIWSGGNTDYNAAFISRVTISKDTSKNQVSLKLSSVTAADTAVYYCARARYFDVWGAGTTVTVSS VL: QAVVTQEPSLTVSPGGTVTLTCRSSTGAITTNNFANWFQQKPGQAFRGLIGDTNNRVPGVPARFSGSLLGNKAALTITGAQPEDEAEYYCALWYNNWVFGGGTKLTVLG | 1e+08 |
| humanized antibody YHB1110-15 (antibody, V domains shown) VH: QVQLKQSGPGLVKPSQTLSLTCTVSGFSLSTYGVQWVRQPPGKGLEWLGVIWSGGNTDYNAAFISRVTISKDTSKNQVSLKLSSVTAADTAVYYCARARYFDVWGAGTTVTVSS VL: QAVVTQEPSLTVSPGGTVTLTCRSSTGAITTNNFANWFQQKPGQAFRGLIGDTNNRVPGVPARFSGSLIGDKAALTITGAQPEDEAEYYCALWYNNWVFGGGTKLTVLG | 7e+07 |
